Results as given in the supplement of paper PMC5998384.

Columns and labels:
[1] = tested on: HeLa Kyoto; assay: thermal stability score vs G1/S (z-score of summed log2 fold changes over temperatures); higher = more thermally stable than in G1/S
[2] = tested on: HeLa Kyoto; assay: melting temperature (median over replicates), in situ; higher = more thermally stable
[3] = cell cycle stage: early G1 (4.5 h after nocodazole release)
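Wherever melting temperature (median over replicates), in situ is given: HeLa Kyoto cells synchronized by double thymidine or nocodazole block, proteins quantified by TMT10plex mass spectrometry, three independent biological replicates.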
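Wherever thermal stability score vs G1/S (z-score of summed log2 fold changes over temperatures) is given: synchronized HeLa Kyoto cells, proteins quantified by TMT10plex mass spectrometry, three biological replicates, mitosis taken 0.5 h after nocodazole release, G1/S directly after double thymidine block.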

Row | Sequence | thermal stability score [1, 3] | thermal stability score ([1]; cell cycle stage: mitosis) | melting temperature ([2]; cell cycle stage: G1/S) | melting temperature ([2]; cell cycle stage: mitosis)
1 | MASASSGPSSSVGFSSFDPAVPSCTLSSAASGIKRPMASEVLEARQDSYISLVPYASGMPIKKIGHRSVDSSGETTYKKTTSSALKGAIQLGITHTVGSLSTKPERDVLMQDFYVVESIFFPSEGSNLTPAHHYNDFRFKTYAPVAFRYFRELFGIRPDDYLYSLCSEPLIELCSSGASGSLFYVSSDDEFIIKTVQHKEAEFLQKLLPGYYMNLNQNPRTLLPKFYGLYCVQAGGKNIRIVVMNNLLPRSVKMHIKYDLKGSTYKRRASQKEREKPLPTFKDLDFLQDIPDGLFLDADMYNALCKTLQRDCLVLQSFKIMDYSLLMSIHNIDHAQREPLSSETQYSVDTRRPAPQKALYSTAMESIQGEARRGGTMETDDHMGGIPARNSKGERLLLYIGIIDILQSYRFVKKLEHSWKALVHDGDTVSVHRPGFYAERFQRFMCNTVFKKIPLKPSPSKKFRSGSSFSRRAGSSGNSCITYQPSVSGEHKAQVTTKAEVEPGVHLGRPDVLPQTPPLEEISEGSPIPDPSFSPLVGETLQMLTTSTTLEKLEVAESEFTH [PIP5K1A] | 1.38 | 1.13 | 51.4 °C | 51.5 °C
2 | MDLAANEISIYDKLSETVDLVRQTGHQCGMSEKAIEKFIRQLLEKNEPQRPPPQYPLLIVVYKVLATLGLILLTAYFVIQPFSPLAPEPVLSGAHTWRSLIHHIRLMSLPIAKKYMSENKGVPLHGGDEDRPFPDFDPWWTNDCEQNESEPIPANCTGCAQKHLKVMLLEDAPRKFERLHPLVIKTGKPLLEEEIQHFLCQYPEATEGFSEGFFAKWWRCFPERWFPFPYPWRRPLNRSQMLRELFPVFTHLPFPKDASLNKCSFLHPEPVVGSKMHKMPDLFIIGSGEAMLQLIPPFQCRRHCQSVAMPIEPGDIGYVDTTHWKVYVIARGVQPLVICDGTAFSEL [C6ORF89] | 0.0285 | -2.22 | 53.2 °C | 
3 | MAIAQLATEYVFSDFLLKEPTEPKFKGLRLELAVDKMVTCIAVGLPLLLISLAFAQEISIGTQISCFSPSSFSWRQAAFVDSYCWAAVQQKNSLQSESGNLPLWLHKFFPYILLLFAILLYLPPLFWRFAAAPHICSDLKFIMEELDKVYNRAIKAAKSARDLDMRDGACSVPGVTENLGQSLWEVSESHFKYPIVEQYLKTKKNSNNLIIKYISCRLLTLIIILLACIYLGYYFSLSSLSDEFVCSIKSGILRNDSTVPDQFQCKLIAVGIFQLLSVINLVVYVLLAPVVVYTLFVPFRQKTDVLKVYEILPTFDVLHFKSEGYNDLSLYNLFLEENISEVKSYKCLKVLENIKSSGQGIDPMLLLTNLGMIKMDVVDGKTPMSAEMREEQGNQTAELQGMNIDSETKANNGEKNARQRLLDSSC [PANX1] | -1.3 | -1.3 | 57.4 °C | 55.7 °C
4 | MRLVILDNYDLASEWAAKYICNRIIQFKPGQDRYFTLGLPTGSTPLGCYKKLIEYHKNGHLSFKYVKTFNMDEYVGLPRNHPESYHSYMWNNFFKHIDIDPNNAHILDGNAADLQAECDAFENKIKEAGGIDLFVGGIGPDGHIAFNEPGSSLVSRTRLKTLAMDTILANAKYFDGDLSKVPTMALTVGVGTVMDAREVMILITGAHKAFALYKAIEEGVNHMWTVSAFQQHPRTIFVCDEDATLELRVKTVKYFKGLMHVHNKLVDPLFSMKDGN [GNPDA2] | -0.549 | -0.194 | 58.1 °C | 58.3 °C
5 | MEFDCEGLRRLLGKYKFRDLTVEELRNVNVFFPHFKYSMDTYVFKDSSQKDLLNFTGTIPVMYQGNTYNIPIRFWILDSHPFAPPICFLKPTANMGILVGKHVDAQGRIYLPYLQNWSHPKSVIVGLIKEMIAKFQEELPMYSLSSSDEARQVDLLAYIAKITEGVSDTNSKSWANHENKTVNKITVVGGGELGIACTLAISAKGIADRLVLLDLSEGTKGATMDLEIFNLPNVEISKDLSASAHSKVVIFTVNSLGSSQSYLDVVQSNVDMFRALVPALGHYSQHSVLLVASQPVEIMTYVTWKLSTFPANRVIGIGCNLDSQRLQYIITNVLKAQTSGKEVWVIGEQGEDKVLTWSGQEEVVSHTSQVQLSNRAMELLRVKGQRSWSVGLSVADMVDSIVNNKKKVHSVSALAKGYYDINSEVFLSLPCILGTNGVSEVIKTTLKEDTVTEKLQSSASSIHSLQQQLKL [UEVLD] | -0.401 | 0.298 | 49.9 °C | 50.1 °C
6 | MREIVHIQAGQCGNQIGAKFWEVISDEHGIDPSGNYVGDSDLQLERISVYYNEASSHKYVPRAILVDLEPGTMDSVRSGAFGHLFRPDNFIFGQSGAGNNWAKGHYTEGAELVDSVLDVVRKECENCDCLQGFQLTHSLGGGTGSGMGTLLISKVREEYPDRIMNTFSVVPSPKVSDTVVEPYNATLSIHQLVENTDETYCIDNEALYDICFRTLKLATPTYGDLNHLVSATMSGVTTSLRFPGQLNADLRKLAVNMVPFPRLHFFMPGFAPLTARGSQQYRALTVPELTQQMFDAKNMMAACDPRHGRYLTVATVFRGRMSMKEVDEQMLAIQSKNSSYFVEWIPNNVKVAVCDIPPRGLKMSSTFIGNSTAIQELFKRISEQFTAMFRRKAFLHWYTGEGMDEMEFTEAESNMNDLVSEYQQYQDATAEEEGEMYEDDEEESEAQGPK [TUBB3] | -0.669 | 0.329 | 52.3 °C | 54.3 °C
7 | MATKEKLQCLKDFHKDILKPSPGKSPGTRPEDEAEGKPPQREKWSSKIDFVLSVAGGFVGLGNVWRFPYLCYKNGGGAFLIPYFIFLFGSGLPVFFLEIIIGQYTSEGGITCWEKICPLFSGIGYASVVIVSLLNVYYIVILAWATYYLFQSFQKELPWAHCNHSWNTPHCMEDTMRKNKSVWITISSTNFTSPVIEFWERNVLSLSPGIDHPGSLKWDLALCLLLVWLVCFFCIWKGVRSTGKVVYFTATFPFAMLLVLLVRGLTLPGAGAGIKFYLYPDITRLEDPQVWIDAGTQIFFSYAICLGAMTSLGSYNKYKYNSYRDCMLLGCLNSGTSFVSGFAIFSILGFMAQEQGVDIADVAESGPGLAFIAYPKAVTMMPLPTFWSILFFIMLLLLGLDSQFVEVEGQITSLVDLYPSFLRKGYRREIFIAFVCSISYLLGLTMVTEGGMYVFQLFDYYAASGVCLLWVAFFECFVIAWIYGGDNLYDGIEDMIGYRPGPWMKYSWAVITPVLCVGCFIFSLVKYVPLTYNKTYVYPNWAIGLGWSLALSSMLCVPLVIVIRLCQTEGPFLVRVKYLLTPREPNRWAVEREGATPYNSRTVMNGALVKPTHIIVETMM [SLC6A6] | -2.77 | -2.51 | 57.6 °C | 57.2 °C
8 | MEAAVAPGRDAPAPAASQPSGCGKHNSPERKVYMDYNATTPLEPEVIQAMTKAMWEAWGNPSSPYSAGRKAKDIINAARESLAKMIGGKPQDIIFTSGGTESNNLVIHSVVKHFHANQTSKGHTGGHHSPVKGAKPHFITSSVEHDSIRLPLEHLVEEQVAAVTFVPVSKVSGQAEVDDILAAVRPTTRLVTIMLANNETGIVMPVPEISQRIKALNQERVAAGLPPILVHTDAAQALGKQRVDVEDLGVDFLTIVGHKFYGPRIGALYIRGLGEFTPLYPMLFGGGQERNFRPGTENTPMIAGLGKAAELVTQNCEAYEAHMRDVRDYLEERLEAEFGQKRIHLNSQFPGTQRLPNTCNFSIRGPRLQGHVVLAQCRVLMASVGAACHSDHGDQPSPVLLSYGVPFDVARNALRLSVGRSTTRAEVDLVVQDLKQAVAQLEDQA [SCLY] | -0.479 | -0.778 | 55.4 °C | 51.5 °C
9 | MSSVQSQQEQLSQSDPSPSPNSCSSFELIDMDAGSLYEPVSPHWFYCKIIDSKETWIPFNSEDSQQLEEAYSSGKGCNGRVVPTDGGRYDVHLGERMRYAVYWDELASEVRRCTWFYKGDKDNKYVPYSESFSQVLEETYMLAVTLDEWKKKLESPNREIIILHNPKLMVHYQPVAGSDDWGSTPTEQGRPRTVKRGVENISVDIHCGEPLQIDHLVFVVHGIGPACDLRFRSIVQCVNDFRSVSLNLLQTHFKKAQENQQIGRVEFLPVNWHSPLHSTGVDVDLQRITLPSINRLRHFTNDTILDVFFYNSPTYCQTIVDTVASEMNRIYTLFLQRNPDFKGGVSIAGHSLGSLILFDILTNQKDSLGDIDSEKDSLNIVMDQGDTPTLEEDLKKLQLSEFFDIFEKEKVDKEALALCTDRDLQEIGIPLGPRKKILNYFSTRKNSMGIKRPAPQPASGANIPKESEFCSSSNTRNGDYLDVGIGQVSVKYPRLIYKPEIFFAFGSPIGMFLTVRGLKRIDPNYRFPTCKGFFNIYHPFDPVAYRIEPMVVPGVEFEPMLIPHHKGRKRMHLELREGLTRMSMDLKNNLLGSLRMAWKSFTRAPYPALQASETPEETEAEPESTSEKPSDVNTEETSVAVKEEVLPINVGMLNGGQRIDYVLQEKPIESFNEYLFALQSHLCYWESEDTVLLVLKEIYQTQGIFLDQPLQ [DDHD2] | 1.25 | 0.742 | 55.4 °C | 54.7 °C
10 | MAYHSGYGAHGSKHRARAAPDPPPLFDDTSGGYSSQPGGYPATGADVAFSVNHLLGDPMANVAMAYGSSIASHGKDMVHKELHRFVSVSKLKYFFAVDTAYVAKKLGLLVFPYTHQNWEVQYSRDAPLPPRQDLNAPDLYIPTMAFITYVLLAGMALGIQKRFSPEVLGLCASTALVWVVMEVLALLLGLYLATVRSDLSTFHLLAYSGYKYVGMILSVLTGLLFGSDGYYVALAWTSSALMYFIVRSLRTAALGPDSMGGPVPRQRLQLYLTLGAAAFQPLIIYWLTFHLVR [YIF1A] | -0.13 | -2.04 | 57.2 °C | 
11 | MGLEAQRLPGAEEAPVRVALRVRPLLPKELLHGHQSCLQVEPGLGRVTLGRDRHFGFHVVLAEDAGQEAVYQACVQPLLEAFFEGFNATVFAYGQTGSGKTYTMGEASVASLLEDEQGIVPRAMAEAFKLIDENDLLDCLVHVSYLEVYKEEFRDLLEVGTASRDIQLREDERGNVVLCGVKEVDVEGLDEVLSLLEMGNAARHTGATHLNHLSSRSHTVFTVTLEQRGRAPSRLPRPAPGQLLVSKFHFVDLAGSERVLKTGSTGERLKESIQINSSLLALGNVISALGDPQRRGSHIPYRDSKITRILKDSLGGNAKTVMIACVSPSSSDFDETLNTLNYASRAQNIRNRATVNWRPEAERPPEETASGARGPPRHRSETRIIHRGRRAPGPATASAAAAMRLGAECARYRACTDAAYSLLRELQAEPGLPGAAARKVRDWLCAVEGERSALSSASGPDSGIESASVEDQAAQGAGGRKEDEGAQQLLTLQNQVARLEEENRDFLAALEDAMEQYKLQSDRLREQQEEMVELRLRLELVRPGWGGPRLLNGLPPGSFVPRPHTAPLGGAHAHVLGMVPPACLPGDEVGSEQRGEQVTNGREAGAELLTEVNRLGSGSSAASEEEEEEEEPPRRTLHLRRNRISNCSQRAGARPGSLPERKGPELCLEELDAAIPGSRAVGGSKARVQARQVPPATASEWRLAQAQQKIRELAINIRMKEELIGELVRTGKAAQALNRQHSQRIRELEQEAEQVRAELSEGQRQLRELEGKELQDAGERSRLQEFRRRVAAAQSQVQVLKEKKQATERLVSLSAQSEKRLQELERNVQLMRQQQGQLQRRLREETEQKRRLEAEMSKRQHRVKELELKHEQQQKILKIKTEEIAAFQRKRRSGSNGSVVSLEQQQKIEEQKKWLDQEMEKVLQQRRALEELGEELHKREAILAKKEALMQEKTGLESKRLRSSQALNEDIVRVSSRLEHLEKELSEKSGQLRQGSAQSQQQIRGEIDSLRQEKDSLLKQRLEIDGKLRQGSLLSPEEERTLFQLDEAIEALDAAIEYKNEAITCRQRVLRASASLLSQCEMNLMAKLSYLSSSETRALLCKYFDKVVTLREEQHQQQIAFSELEMQLEEQQRLVYWLEVALERQRLEMDRQLTLQQKEHEQNMQLLLQQSRDHLGEGLADSRRQYEARIQALEKELGRYMWINQELKQKLGGVNAVGHSRGGEKRSLCSEGRQAPGNEDELHLAPELLWLSPLTEGAPRTREETRDLVHAPLPLTWKRSSLCGEEQGSPEELRQREAAEPLVGRVLPVGEAGLPWNFGPLSKPRRELRRASPGMIDVRKNPL [KIF7] | 1.88 | 2.73 | 52.4 °C | 51.4 °C
